Assay: soluble on expression in E. coli; label from the status in PepcDB or PDB records

Sequence	soluble on expression in E. coli
GLVPRGSHMYAELSPGTKKVYTQVRYLDDYHWEIEGSTITGIHKKSNVKVVIDVAKNREEADSLAGKDVNGIHIVAIPDNGVFYIKNGSFVLTYRYLKATLADINDHIVWSGFKVVEDNGKLVQEDVYEYLGAALVNHIKNNALAGQDYIFWQFYKCEECGKYVDIENLEAHLREHGIKLHEKSEEHYEVFELNFREGKVFDKFGGEVPMDKFSSEAREFIKEVLS	soluble
MRGSHHHHHHGSGKSYPTVSADYQKAVEKAKKKLRGFIAEKRCAPLMLRLAWHSAGTFDKGTKTGGPFGTIKHPAELAHSANNGLDIAVRLLEPLKAEFPILSYADFYQLAGVVAVEVTGGPEVPFHPGREDKPEPPPEGRLPDATKGSDHLRDVFGKAMGLTDQDIVALSGGHTIGAAHKERSGFEGPWTSNPLIFDNSYFTELLSGEKEGLLQLPSDKALLSDPVFRPLVDKYAADEDAFFADYAEAHQKLSELGFADAHEM	soluble
MDTNITWHTASVSKDERRVKNGHHSFVIWFTGLSASGKSTVANAVARKLFEKNIGNYVLDGDNIRHGLNKDLGFSESDRMENIRRIGEVAKLFVDQGAVVLTAFISPFRVDRKQVRDLLAVDEFIEVFVKCPIEECEKRDPKGLYKKARKGDIKEFTGIDSPYEEPEKAELIVETHKYSIEECAEQIVKYLQERSLI	not soluble
MLEEELARKIERYFSIEEEALKKIRISPAEGSFLRKIAEDNMQMILSYYSDAKHFYAKGDLINAFAALNYSYGWIDAGVRLGIFDGAGDHRLFTLYE	not soluble
MAKKTSSKGKLPPGPTPLPFIGNYLQLNTEQMYNSLMKISERYGPVFTIHLGPRRVVVLCGHDAVKEALVDQAEEFSGRGEQATFDWLFKGYGVAFSNGERAKQLRRFSIATLRGFGVGKRGIEERIQEEAGFLIDALRGTHGANIDPTFFLSRTVSNVISSIVFGDRFDYEDKEFLSLLRMMLGSFQFTATSTGQLYEMFSSVMKHLPGPQQQAFKELQGLEDFIAKKVEHNQRTLDPNSPRDFIDSFLIRMQEEEKNPNTEFYLKNLVMTTLNLFFAGTETVSTTLRYGFLLLMKHPEVEAKVHEEIDRVIGKNRQPKFEDRAKMPYTEAVIHEIQRFGDMLPMGLAHRVNKDTKFRDFFLPKGTEVFPMLGSVLRDPRFFSNPRDFNPQHFLDKKGQFKKSDAFVPFSIGKRYCFGEGLARMELFLFFTTIMQNFRFKSPQSPKDIDVSPKHVGFATIPRNYTMSFLPRHHHH	soluble
MGSDKIHHHHHHMQEYKACAAHTDILKKYGFKVEKGFANFETAYKASYKKQNGPRIAILAEYDALPKIGHGCGHNAYGVTSIAGGILIKELIQKLDLQGEILVIGTPAEETNGAKVDMAKLGIFNDIDVAMSVHPSGEAHIRSGKSHAMEALQFTFKGKTAHAAASPHEGINALDGVLNLFNSINALRQQILSSARIHGIISNGGEAANIIPDLAIANFYVRAETLEYLKELVKKVKNCAKGAALASDTELEITNYETSFANLVTNKKLMKLYEKNLRTLGVTDIRDKEGLGSTDMGDVSHCCPTIHPYFPLTTRHLVGHTIEFATATIQEEAYKGMKEACLAMALSCLDIFEKPEILKEIKEEFYQTFKK	not soluble
MEDKVDVLIIGGGASGVTSGIQSARMGANTLILEESTWLGGMLTSAGVSAVDGNYRLPAGLWGEFKNRLSDYYGGLDSLKTGWVSNVLFEPSVGNKILHEMVAAENNLKVWKQACLEEVKRTGDEWVAKVKVEGQGVKTVRAKVMIDATELGDVAKMCGLEHHHHHH	not soluble
MTTTIEVGMLGLGTVGSGVVERLTRSAAKIEQTQGIRLHLAAVAVNHLNAPRTVQLPIGTRLTDSLTNVVCDRKIQLVIEVMGTVATAKKAIVAALNQGKAVVTANKDLIATAGPELAALAKKQGCDLFYEASVAGGIPILRTLTDSYVTDNVQAVSGIINGTANYMLSAMATGQSYEQALATAQATGYAEADPTNDVAGIDAAYKLMILSRFAFGQELSLPQIAPTGITHLSASVCRLAAENGWQIKLLAQIQRHGSGLYCRVAPVAVPVDQPLSQINGVQNAVAVQSEAIGTSLYTGPGAGSTATANSVLNDVLVAAKHLINGYRMIRNQKRSVSLTVTRFDQLPQTYLGIGPVAPEAVKYYANEADFSVKTIADDCYQITGLSAVKRKKLRANLPLTLIPIAGTTDWKQVTENSITSPINVAILEHHHHHH	soluble
HHHHHHSSGLVPRGSHMMNPFHDLEPGPNVPEVVYALIEIPKGSRNKYELDKETGLLKLDRVLYTPFHYPVDYGIIPRTWYEDGDPFDIMVIMREPTYPLTIIEARPIGLFKMIDSGDKDYKVLAVPVEDPYFKDWKDISDVPKAFLDEIAHFFKRYKELEGKEIIVEGWEGAEAAKREILRAIEMYKEKFGKKE	soluble
GPGSMDTRDRPLPRTPPLQTPRGSCHPPLLTVEEDVRRAGQVRQVRPTKELNCRHQTSLQLYREHRRCEAEGFKERRVILRVWVLHGQHAPGGHTRPHPTGAQDRDAQAPQLRRAVESRLSPTHYEAEGDGRLNRRHHTTTACSHQRPHILRHIRRGNKDVAP	not soluble
MAHHHHHHMRKKGSGFIGGKLNLKIKKKKKNAKQEARHGEASHVDSVAKSGEAVQVKSDPSEHDGKKDGSEKIIKGTGRITTEKNTVRGVRTDFMAEIKEGYDIILENPSTFRNERRTVTSVLSNKTLLVHEEFTTDISTTCAFYIASGGKSGGKPVGQPADTPEAHIGVEYAKVFEQTSRQDQVEVREKTGLWSYRVVKKKVDGRLTNEEKLDMRVRSGRDKFCW	not soluble
MRIELSIKADDSLVSFSHQHLLVGTLQKWLGENDMHGKSISYSFSRLNGGKLVSELNSILFADWANMFVSAHDPELIRRMLAGIRQDPEMFKSLCVREVTVIEDPDMTDREIFFPASPILLKRWREDNGFDHIVYTDEAANALLTENLRKKLQAVGIDDPTATASFVPDQGKAKVMLIDYRGVKNKASWCPIRIIGNAETKLFAWNAGIGNSTGIGFGAIK	not soluble
MENDMKSLSAAAQACVKKMRDAKVNEACIRTFIAQHVMVSKGETGSIPDSAIMPVDSLDALDSLTIECDNAVLQSTVVLKLNGGLGTGMGLCDAKTLLEVKDGKTFLDFTALQVQYLRQHCSEHLRFMLMDSFNTSASTKSFLKARYPWLYQVFDSEVELMQNQVPKILQDTLEPAAWAENPAYEWAPPGHGDIYTALYGSGKLQELVEQGYRYMFVSNGDNLGATIDKRVLAYMEKEKIDFLMEVCRRTESDKKGGHLARQTVYVKGKDGQPDAEKRVLLLRESAQCPKADMESFQDINKYSFFNTNNLWIRLPVLLETMQEHGGTLPLPVIRNEKTVDSSNSASPKVYQLETAMGAAIAMFESASAIVVPRSRFAPVKTCADLLALRSDAYVVTDDFRLVLDDRCHGHPPVVDLDSAHYKMMNGFEKLVQHGVPSLVECKRVTVKGLVQFGAGNVLTGTVTIENTDSASAFVIPDGAKLNDTTASPQQSTNKMRPLEHHHHHH	soluble
MGSDKIHHHHHHMFEHRFKDLHHTYRAIREVESEHHNIANIIKYVHKNNRVRQPSVGSHIRLRKKWEVEKSTLHARLSWDLERMQVWQLEHLSKLVDFAYNYVPFYHALYHEAGFRTGDIVTWSDFEKLPIVDKKMLVDNRSALCASIGFAPDNHHVARTSGSSGINFTIVQDDTSVDTRVVLNLRQTEMMVGHALSPDDWRYGIYLASERFTSLAGGYPVITVGQDCPAVDVFEHIQKIKPKILYAFPSYLKRLQVCAGDLTEWGVECICTNSEPSTQEERQVFARHFGVPVLDEYSSEEFSLIATECRYGRYHIVEDNLKAEVCNIDPEGWGTLVGTSFANTYMPFIRYSQGDIVKLDARQILCECGTHFRYLDTFHGRADQFLESKNNGKIPPDKLMGLYDSTLILETSGVKEFQIVQTHLDKIEIRIVLMDKEGAYNYALMSNFVSGIKQLFSGDPLTVSVHVLESIPAAKSYKRRLIVNMINS	not soluble
MTSVLNSFWLGIKVPLRKAVYWLQYNLLKRKRNAFNILMAEETIDYIVKHECSVCRYGDGEIDMITCLKEGFDESRKSDFQTYDEKLAWRLKQILGNGSDEELNLIVCIPYVWKSHRSLSFTARRFIERSFVNNREMIFASIHPTRLYGDSYFTRFYIDARNKKKKGSYIQHCRQIWQGRDLCIIEGEQSRLGVGNDLFDNAQSIERILCPALDAFAKYDEIMKAACTVNKAKLVLIALGHTATVLAYDLAEVGYQAIDIGHIDIEYEWFLMRAPKKVPVPHKYVNEVPEGRQFSEERNKEYLSQIIYSVK	not soluble
TTFENKKVLVLGLARSGEAAARLLAKLGAIVTVNDGKPFDENPTAQSLLEEGIKVVCGSHPLELLDEDFCYMIKNPGIPYNNPMVKKALEKQIPVL	not soluble
MKLSEYGLQLQEKQKLRHMYGVNERQFRKTFEEAGKMPGKHGENFMILLESRLDNLVYRLGLARTRRQARQLVTHGHILVDGSRVNIPSYRVKPGQTIAVREKSRNLQVIKEALEANNYIPDYLSFDPEKMEGTYTRLPERSELPAEINEALIVEFYSR	soluble
MSALAVALARQSESHADCPLFNDPYAQVFIDAALSRGCQLPSDETSERINGIANYASSRTKWFDEYFIAAGAHGLEQMVIVAAGLDARAWRLPWVAGTTLFEIDHPGVLKFKNEALHEHGESPSVSRYVPVPADLSDGWSERLRDAGFDVSEPTAWAVEGLLPYVADGPHLLFDRIHEISPAGSRLAVEAVGTGVADWLSTQGWQVTMIGAQELMTRYGRCGDHSDTDAGMDTVFVNATRTR	soluble
MSLNREAQGSQEGVRIRKARAQDIPIVMEINLESLPENYWYGFYKYILDNWGEAFLVAEVGGEIVGYAMSRVEQTSDPVLLGMKDELEGDKSVIDKILDAIRNQLSEERPVGHLVSIAVRPGFRGRGIGSKLLSATVRVMKNVYRVDAIFLEVRVSNMPAIRLYEKFGFRKVRRIKGYYRDGEDAFVMVKRLLEGHHHHHH	soluble
MVSTTQSRSLKAMGEEIWKNKTEKINTELFTLTYGSIVAQLCQDYERDFNKVNDHLYSMGYNIGCRLIEDFLARTALPRCENLVKTSEVLSKCAFKIFLNITPNITNWSHNKDTFSLILDENPLADFVELPMDAMKSLWYSNILCGVLKGSLEMVQLDCDVWFVSDILRGDSQTEIKVKLNRILKDEIPIGED	soluble
MSVLDISIIIANYNTEEFLRNCLNSIKSTVKNVKYEVIVTDNNSKDDSVTMIKNEFPWVKLIESKINGGFAYANNLAIKESSGKYIFLLNTDTVLLKDVIEKMVNYMDENKDVGLLGPKLLNRDMSHQTSVSGFPSFKREFYHIYKLKNILKIPILKKIIVAMSGKIGSKDVEQYMMNFKSIDEPREVQVLVGAALLVRRNVIDKIGMLDERYFMYYEEIDFCYQANKAGFKAVYYPNGEIIHYIGQAATKSRILEHHHHHH	soluble
MGFFDDKQDFLEETFAKYPPEGRRAAIMPLLRRVQQEEGWIRPERIEEIARLVGTTPTEVMGVASFYSYYQFVPTGKYHLQVCATLSCKLAGAEELWDYLTETLGIGPGEVTPDGLFSVQKVECLGSCHTAPVIQVNDEPYVECVTRARLEALLAGLRAGKRLEEIELPGKCGHHVHEVEVLEHHHHHH	soluble
LGVDRAKQIQALAKGTFGINIALDAFTLELRLLVEQIEFIEEQISVIEEAIDQVMEEMRPSKDTAYRHVLETIPGIGPVLAASIIGEIGDINRFPNAKALVAYAGLDATVRSSGQFEGTRNRISKRGSPVLRHSIWLAAVSARRFNPEMKEFFEKKRSEGKHTLVATGAVARRMVHLIYSLWKDNRPFDPNYQWSPTNSR	soluble
